Reference: patent publication US20250270319A1
Where a chain is given by its changes, count along the chain named.

B1: anti-CD33 antibody 6C7H39 (antibody, V domains shown)
VH: EVQLVESGGGLVQPGGSLRLSCAASGFTFSEYDMLWVRQAPGKGLEWVGEIRLKSNNYVTNYAASVKGRFTISRDDTKNSVYLQMNSLKTEDTGVYYCTRAGYYVPFAYWGQGTLVTVSS
VL: QPVLTQSPSASASLGASVKLTCTLSSQHSTYTIEWYQQQPEKGPRYLMELKKEGSHSTGDGIPDRFSGSSSGAERYLTISSLQSEDEADYYCGVGVTIKEQFVYVFGGGTKLTVL
B2: anti-CD33 antibody 6C7H40 (antibody, V domains shown)
VH: B1 VH
VL: B1 VL with P2L, V3M, E41G, V96H, V105E
B3: anti-CD33 antibody 6C7H31 (antibody, V domains shown)
VH: B1 VH with F27S, T77S
VL: B1 VL
B4: anti-CD33 antibody 6C7H32 (antibody, V domains shown)
VH: B1 VH with F27S, T77S
VL: B1 VL with P2L, V3M, E41G, V96H, V105E
B5: anti-CD33 antibody 6C7H33 (antibody, V domains shown)
VH: B1 VH with F27S, T77S
VL: B1 VL with P2L, V3M, E41G, V96H
B6: anti-CD33 antibody 6C7H34 (antibody, V domains shown)
VH: B1 VH with F27S, T77S
VL: B1 VL with V3M, E41G, V96L
B7: anti-CD33 antibody 6C7H35 (antibody, V domains shown)
VH: B1 VH with D33A, T77S, A108T
VL: B1 VL

Target: recombinant cynomolgus CD33 protein (NovoProtein) (cynomolgus)
Assay: ELISA, plate coated with recombinant CD33

Sequence of recombinant cynomolgus CD33 protein (NovoProtein) (cynomolgus) (chain, as listed by the source limits assumed): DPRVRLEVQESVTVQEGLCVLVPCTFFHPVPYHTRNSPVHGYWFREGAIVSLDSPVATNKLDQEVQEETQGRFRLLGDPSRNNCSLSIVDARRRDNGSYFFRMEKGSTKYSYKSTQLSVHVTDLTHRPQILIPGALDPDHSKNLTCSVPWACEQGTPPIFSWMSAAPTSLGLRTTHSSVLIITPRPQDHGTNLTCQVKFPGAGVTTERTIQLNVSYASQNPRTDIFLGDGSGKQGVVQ

Row | Binder | Relative maximal binding (cyno/human)
1 | B1 | 0.02
2 | B2 | 0.03
3 | B3 | 0.02
4 | B4 | 0.01
5 | B5 | 0.01
6 | B6 | 0.01
7 | B7 | 0.04
